Results published in doi:10.1101/2022.06.08.495335.

Biological target: clathrin N-terminal domain (NTD) (UniProt Q00610)
Assay: fluorescence polarisation + ITC

UniProt Q00610, sequence (Q00610 1-364): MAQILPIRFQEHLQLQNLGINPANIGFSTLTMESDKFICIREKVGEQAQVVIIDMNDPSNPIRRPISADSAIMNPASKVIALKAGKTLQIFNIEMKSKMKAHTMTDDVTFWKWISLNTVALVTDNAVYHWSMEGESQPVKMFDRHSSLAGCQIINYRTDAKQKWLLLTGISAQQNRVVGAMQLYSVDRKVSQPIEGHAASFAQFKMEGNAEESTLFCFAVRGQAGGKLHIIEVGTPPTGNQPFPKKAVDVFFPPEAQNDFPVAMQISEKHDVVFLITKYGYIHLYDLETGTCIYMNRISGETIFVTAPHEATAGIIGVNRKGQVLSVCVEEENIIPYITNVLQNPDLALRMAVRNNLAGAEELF

For “HURP_(832-846) phosphorylated peptide (pS839) (from UniProt Q15398 832-846)”, the fold increase in affinity against the wild-type peptide was 20 fold.
